Measured values as given in patent US20250186597A1 (BRIGHT PEAK THERAPEUTICS, published 2025).
Substitutions are numbered along the chain they refer to. In names and notes the source's numbering stands. Several values for one entry are separate records, joined by “and”; a condition that tells them apart may be missing. Equal values may be shown once.

B1: IL-18 polypeptide of SEQ ID NO: 34 (E06K, K53A, S55A) (ligand)
chain: YFGKLKSKLSVIRNLNDQVLFIDQGNRPLFEDMTDSDCRDNAPRTIFIISMYADAQPRGMAVTISVKCEKISTLSCENKIISFKEMNPPDNIKDTKSDIIFFQRSVPGHDNKMQFESSSYEGYFLACEKERDLFKLILKKEDELGDRSIMFTVQNED
B2: IL-18 polypeptide C179 (E6K, K8E, V11I, C38A, K53A, T63A, C76A, Q103R, C127A) (ligand)
chain: B1 chain with K8E, V11I, C38A, A55S, T63A, C76A, Q103R, C127A
B3: IL-18 polypeptide C155 (V11I, C38A, D40A, K53A, C76A, C127A) (ligand)
chain: B1 chain with K6E, V11I, C38A, D40A, A55S, C76A, C127A
B4: IL-18 polypeptide C163 (V11I, C38A, C76A, Q103K, C127A) (ligand)
chain: B1 chain with K6E, V11I, C38A, A53K, A55S, C76A, Q103K, C127A
B5: IL-18 polypeptide C167 (V11I, C38A, C76A, S105I, C127A) (ligand)
chain: B1 chain with K6E, V11I, C38A, A53K, A55S, C76A, S105I, C127A
B6: IL-18 polypeptide C146 (SEQ ID NO: 68; V11I, C38A, M51G, K53A, C76A, C127A) (ligand)
chain: B1 chain with K6E, V11I, C38A, M51G, A55S, C76A, C127A
B7: IL-18 polypeptide C145 (V11I, C38A, K53A, S55A, C76A, C127A) (ligand)
chain: B1 chain with K6E, V11I, C38A, C76A, C127A
B8: IL-18 polypeptide C149 (V11I, E31A, C38A, K53A, C76A, C127A) (ligand)
chain: B1 chain with K6E, V11I, E31A, C38A, A55S, C76A, C127A
B9: IL-18 polypeptide C152 (V11I, S36A, C38A, K53A, C76A, C127A) (ligand)
chain: B1 chain with K6E, V11I, S36A, C38A, A55S, C76A, C127A
B10: IL-18 polypeptide C176 (E6K, V11I, C38A, I49M, K53A, T63A, C76A, C127A) (ligand)
chain: B1 chain with V11I, C38A, I49M, A55S, T63A, C76A, C127A
B11: IL-18 polypeptide of SEQ ID NO: 56 (E6K, K53A, C38S, C76S, C127S) (ligand)
chain: B1 chain with C38S, A55S, C76S, C127S
B12: IL-18 polypeptide C178 (E6K, V11I, C38A, K53A, T63A, C76A, Q103R, C127A) (ligand)
chain: B1 chain with V11I, C38A, A55S, T63A, C76A, Q103R, C127A
B13: IL-18 polypeptide C143 (V11I, C38A, K53A, C76A, C127A) (ligand)
chain: B1 chain with K6E, V11I, C38A, A55S, C76A, C127A
B14: IL-18 polypeptide of SEQ ID NO: 50 (E06K, K53A, T63A) (ligand)
chain: B1 chain with A55S, T63A
B15: IL-18 polypeptide of SEQ ID NO: 62 (E6K, C38A, K53A, C127A) (ligand)
chain: B1 chain with C38A, A55S, C127A
B16: IL-18 polypeptide C156 (V11I, C38A, N41A, K53A, C76A, C127A) (ligand)
chain: B1 chain with K6E, V11I, C38A, N41A, A55S, C76A, C127A
B17: IL-18 polypeptide C166 (V11I, C38A, S55T, C76A, C127A) (ligand)
chain: B1 chain with K6E, V11I, C38A, A53K, A55T, C76A, C127A
B18: IL-18 polypeptide C174 (K8L, E6K, V11I, C38A, K53A, T63A, C76A, C127A) (ligand)
chain: B1 chain with K8L, V11I, C38A, A55S, T63A, C76A, C127A
B19: IL-18 polypeptide C168 (V11I, C38A, C76A, S105K, C127A) (ligand)
chain: B1 chain with K6E, V11I, C38A, A53K, A55S, C76A, S105K, C127A
B20: IL-18 polypeptide of SEQ ID NO: 57 (E6K, C38S, K53A) (ligand)
chain: B1 chain with C38S, A55S
B21: IL-18 polypeptide C158 (V11I, C38A, K53A, C76A, G108A, C127A) (ligand)
chain: B1 chain with K6E, V11I, C38A, A55S, C76A, G108A, C127A
B22: IL-18 polypeptide C160 (V11I, C38A, K53A, C76A, D110A, C127A) (ligand)
chain: B1 chain with K6E, V11I, C38A, A55S, C76A, D110A, C127A
B23: IL-18 polypeptide of SEQ ID NO: 42 (E06K, K53A, S55A, T63A) (ligand)
chain: B1 chain with T63A
B24: IL-18 polypeptide C177 (E6K, V11I, C38A, I49R, K53A, T63A, C76A, C127A) (ligand)
chain: B1 chain with V11I, C38A, I49R, A55S, T63A, C76A, C127A
B25: IL-18 polypeptide C150 (V11I, T34A, C38A, K53A, C76A, C127A) (ligand)
chain: B1 chain with K6E, V11I, T34A, C38A, A55S, C76A, C127A
B26: IL-18 polypeptide of SEQ ID NO: 60 (E6K, C38Q, K53A) (ligand)
chain: B1 chain with C38Q, A55S
B27: IL-18 polypeptide C148 (F2A, V11I, C38A, K53A, C76A, C127A) (ligand)
chain: B1 chain with F2A, K6E, V11I, C38A, A55S, C76A, C127A
B28: IL-18 polypeptide C151 (V11I, D35A, C38A, K53A, C76A, C127A) (ligand)
chain: B1 chain with K6E, V11I, D35A, C38A, A55S, C76A, C127A
B29: IL-18 polypeptide of SEQ ID NO: 59 (E6K, C38A, K53A) (ligand)
chain: B1 chain with C38A, A55S
B30: IL-18 polypeptide C161 (K8R, V11I, C38A, C76A, Q103E, C127A) (ligand)
chain: B1 chain with K6E, K8R, V11I, C38A, A53K, A55S, C76A, Q103E, C127A
B31: IL-18 polypeptide C159 (V11I, C38A, K53A, C76A, H109A, C127A) (ligand)
chain: B1 chain with K6E, V11I, C38A, A55S, C76A, H109A, C127A
B32: IL-18 polypeptide C164 (V11I, C38A, S55H, C76A, C127A) (ligand)
chain: B1 chain with K6E, V11I, C38A, A53K, A55H, C76A, C127A
B33: IL-18 polypeptide C157 (V11I, C38A, K53A, C76A, C127A, D132A) (ligand)
chain: B1 chain with K6E, V11I, C38A, A55S, C76A, C127A, D132A
B34: IL-18 polypeptide C162 (K8E, V11I, C38A, C76A, Q103R, C127A) (ligand)
chain: B1 chain with K6E, K8E, V11I, C38A, A53K, A55S, C76A, Q103R, C127A
B35: IL-18 polypeptide C181 (E6K, V11I, C38A, K53A, T63A, C76A, C127A, V153E) (ligand)
chain: B1 chain with V11I, C38A, A55S, T63A, C76A, C127A, V153E
B36: IL-18 polypeptide C154 (V11I, E31A, D37A, C38A, K53A, C76A, C127A) (ligand)
chain: B1 chain with K6E, V11I, E31A, D37A, C38A, A55S, C76A, C127A
B37: IL-18 polypeptide C153 (V11I, D37A, C38A, K53A, C76A, C127A) (ligand)
chain: B1 chain with K6E, V11I, D37A, C38A, A55S, C76A, C127A
B38: IL-18 polypeptide C165 (V11I, C38A, S55R, C76A, C127A) (ligand)
chain: B1 chain with K6E, V11I, C38A, A53K, A55R, C76A, C127A
B39: IL-18 polypeptide C147 (V11I, C38A, K53A, D54A, C76A, C127A) (ligand)
chain: B1 chain with K6E, V11I, C38A, D54A, A55S, C76A, C127A
B40: IL-18 polypeptide of SEQ ID NO: 54 (E06K, K53A, C38S, C68S, C76S, C127S, K70C) (ligand)
chain: B1 chain with C38S, A55S, C68S, K70C, C76S, C127S
B41: IL-18 polypeptide C144 (V11I, C38A, K53A, T63A, C76A, C127A) (ligand)
chain: B1 chain with K6E, V11I, C38A, A55S, T63A, C76A, C127A

Target: T1, IL-18R on HEK-Blue IL18R reporter cells (InvivoGen, #hkb-hmi118) (UniProt Q13478 19-541; O95256 20-599, limits assumed)
T1 sequence (looked up) 1: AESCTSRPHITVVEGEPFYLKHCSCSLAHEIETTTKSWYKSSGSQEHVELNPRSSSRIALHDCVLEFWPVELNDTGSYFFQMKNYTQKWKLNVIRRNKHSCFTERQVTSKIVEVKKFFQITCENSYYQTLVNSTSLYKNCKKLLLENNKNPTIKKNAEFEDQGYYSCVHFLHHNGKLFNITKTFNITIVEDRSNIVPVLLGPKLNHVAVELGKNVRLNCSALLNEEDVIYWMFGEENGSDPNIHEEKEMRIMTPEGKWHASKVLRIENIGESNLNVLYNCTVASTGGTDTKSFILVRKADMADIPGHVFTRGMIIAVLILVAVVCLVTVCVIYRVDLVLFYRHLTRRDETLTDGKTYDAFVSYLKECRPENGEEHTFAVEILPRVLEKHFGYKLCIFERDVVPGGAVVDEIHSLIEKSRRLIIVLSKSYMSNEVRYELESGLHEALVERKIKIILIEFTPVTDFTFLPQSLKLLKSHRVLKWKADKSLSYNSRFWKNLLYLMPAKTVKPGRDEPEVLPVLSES
T1 sequence (looked up) 2: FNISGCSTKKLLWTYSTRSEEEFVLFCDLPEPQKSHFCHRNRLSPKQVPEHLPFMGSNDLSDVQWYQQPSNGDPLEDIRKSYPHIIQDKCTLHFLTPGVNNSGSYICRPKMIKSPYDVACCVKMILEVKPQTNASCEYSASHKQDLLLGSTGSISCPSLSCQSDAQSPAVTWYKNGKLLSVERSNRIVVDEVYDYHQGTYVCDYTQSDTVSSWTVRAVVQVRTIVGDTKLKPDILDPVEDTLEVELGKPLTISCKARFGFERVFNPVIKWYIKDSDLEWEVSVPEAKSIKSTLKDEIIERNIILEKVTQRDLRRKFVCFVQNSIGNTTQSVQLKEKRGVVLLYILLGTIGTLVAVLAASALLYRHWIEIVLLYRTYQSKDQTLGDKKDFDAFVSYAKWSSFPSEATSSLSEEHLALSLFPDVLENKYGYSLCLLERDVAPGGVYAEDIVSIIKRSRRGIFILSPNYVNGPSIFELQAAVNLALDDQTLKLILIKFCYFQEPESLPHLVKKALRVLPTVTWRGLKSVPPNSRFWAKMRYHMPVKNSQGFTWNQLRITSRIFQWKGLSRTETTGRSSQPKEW
Test: cell-based or functional assay

First: B1
Second: B2
The “EC50, HEK-Blue IL18R reporter assay” value of the first is 680-fold higher: 272 pM for the first, 0.4 pM for the second.

First: B3
Second: B4
The “EC50, HEK-Blue IL18R reporter assay” value of the first is 2.9-fold lower: 0.52 pM for the first, 1.5 pM for the second.

Going from B5 to B6, the “EC50, HEK-Blue IL18R reporter assay” value falls from 5.37 pM to 0.8 pM (6.7-fold).

Going from B7 to B8, the “EC50, HEK-Blue IL18R reporter assay” value rises from 3.63 pM to 6.6 pM (1.8-fold).

Going from B9 to B10, the “EC50, HEK-Blue IL18R reporter assay” value falls from 0.25 pM to 0.07 pM (3.6-fold).

First: B11
Second: B12
The “EC50, HEK-Blue IL18R reporter assay” value of the first is 14-fold higher: 3.73 pM for the first, 0.26 pM for the second.

Going from B13 to B14, the “EC50, HEK-Blue IL18R reporter assay” value rises from 0.98 pM to 1.77 pM (1.8-fold).

First: B15
Second: B16
The “EC50, HEK-Blue IL18R reporter assay” value of the first is 69-fold lower: 0.17 pM for the first, 11.7 pM for the second.

Going from B17 to B18, the “EC50, HEK-Blue IL18R reporter assay” value falls from 4.73 pM to 0.29 pM (16-fold).

Going from B19 to B21, the “EC50, HEK-Blue IL18R reporter assay” value rises from 7.73 pM to 15.6 pM (2-fold).

First: B22
Second: B23
The “EC50, HEK-Blue IL18R reporter assay” value of the first is 2.6-fold higher: 2.02 pM for the first, 0.79 pM for the second.

Going from B24 to B25, the “EC50, HEK-Blue IL18R reporter assay” value rises from 0.04 pM to 0.7 pM (18-fold).

Compared with B26, B27 is 36-fold higher in “EC50, HEK-Blue IL18R reporter assay” value: 0.203 pM for the first, 7.28 pM for the second.

First: B28
Second: B29
The “EC50, HEK-Blue IL18R reporter assay” value of the first is 49-fold higher: 13.1 pM for the first, 0.268 pM for the second.

Compared with B30, B31 is 9.7-fold higher in “EC50, HEK-Blue IL18R reporter assay” value: 2.01 pM for the first, 19.5 pM for the second.

Going from B32 to B33, the “EC50, HEK-Blue IL18R reporter assay” value falls from 3.14 pM to 1.95 pM (1.6-fold).

Going from B34 to B35, the “EC50, HEK-Blue IL18R reporter assay” value falls from 2.3 pM to 0.1 pM (23-fold).

B36 and B37 are within 1.5-fold of each other in “EC50, HEK-Blue IL18R reporter assay” value: 11.9 pM for the first, 14.1 pM for the second.

Compared with B38, B39 is 1.9-fold lower in “EC50, HEK-Blue IL18R reporter assay” value: 1.91 pM for the first, 1 pM for the second.

Compared with B40, B41 is 54-fold lower in “EC50, HEK-Blue IL18R reporter assay” value: 9.12 pM for the first, 0.17 pM for the second.

For B20, the “EC50, HEK-Blue IL18R reporter assay” value was 0.86 pM and 0.53 pM.
